Assay results as given in patent US20180155451A1 (published 2018).

T1: FcγRIIa H (human, UniProt P12318 34-217)
T1 construct: extracellular domain; Soluble extracellular domain with C-terminal His tag, expressed in FreeStyle293 cells; also called FcgRIIa H; 2aH; not shown: C-terminal His tag
T1 sequence (looked up): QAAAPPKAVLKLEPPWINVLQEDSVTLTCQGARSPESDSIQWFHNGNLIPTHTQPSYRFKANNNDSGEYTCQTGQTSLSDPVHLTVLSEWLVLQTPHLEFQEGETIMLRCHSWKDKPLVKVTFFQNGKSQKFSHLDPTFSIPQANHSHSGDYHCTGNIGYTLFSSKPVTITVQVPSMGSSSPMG

T2: FcγRIIb (human, UniProt P31994 43-217)
T2 construct: extracellular domain; Soluble extracellular domain with C-terminal His tag, expressed in FreeStyle293 cells; also called FcgRIIb; 2b; not shown: C-terminal His tag
T2 sequence (looked up): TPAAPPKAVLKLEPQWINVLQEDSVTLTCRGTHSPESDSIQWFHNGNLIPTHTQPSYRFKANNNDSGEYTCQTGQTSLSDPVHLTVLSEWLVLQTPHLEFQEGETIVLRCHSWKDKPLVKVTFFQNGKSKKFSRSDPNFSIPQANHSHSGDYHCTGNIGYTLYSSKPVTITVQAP


Legend:
FcγRIIa H = target: T1, FcγRIIa H; assay: SPR (Biacore), antibody captured, FcγR as analyte; relative to HeCon Ab
Description: (§1) The heterodimerized antibodies He Abs in which one of the H chains was introduced with an alteration were assayed for their binding activities to each activating FcγR and inhibitory FcγR according to the method described in Example 4. […] The activating FcγRs in FIGS. 26, 27, 28, and 29 are FcγRIa, FcγRIIa (R), FcγRIIa (H), and FcγRIIIa, respectively.
(§2) Analysis of interaction between objective antibody and the FcγR was carried out using Biacore T100 (GE Healthcare). HBS-EP+ (GE Healthcare) was used as the running buffer, and the measurement temperature was set to 25° C. Chips produced by immobilizing the antigen peptide by the amine coupling method to a Series S Sencor Chip CM5 (GE Healthcare), or alternatively, chips produced by allowing preliminarily biotinylated antigen peptides to interact with and immobilize onto a Series S Sensor Chip SA (certified) (GE Healthcare) were used. Antibodies of interest were captured onto an antigen peptide-immobilized chip, and allowed to interact to each FcγR diluted with running buffer. To regenerate and repeatedly use the chip, the antibodies captured on the chip were washed off by reacting 10 mM glycine-HCl, pH 1.5.

FcγRIIb = target: T2, FcγRIIb; assay: as above
Description: as §1, §2

Binder	He/Con_2aH (FcγRIIa H)	He/Con_2b (FcγRIIb)
GpH7-A5/GpH7-B3 variant L234_09D/GpL16-k0 (antibody, human IgG1, kappa, Heterodimerized anti-glypican-3 IgG1; alteration in the GpH7-B3 chain only; also called He Ab) heavy 1: not shown heavy 2: not shown light: DIVMTQSPLSLPVTPGEPASISCQASESLVHSNRNTYLHWYLQKPGQSPQLLIYKVSNRFSGVPDRFSGSGSGTDFTLKISRVEAEDVGVYYCSQNTHVPPTFGQGTKVEIERTVAAPSVFIFPPSDEQLKSGTASVVCLLNNFYPREAKVQWKVDNALQSGNSQESVTEQDSKDSTYSLSSTLTLSKADYEKHKVYACEVTHQGLSSPVTKSFNRGEC	89.9 % of GpH7-A5/GpH7-B3/GpL16-k0 (=100)	150 % of GpH7-A5/GpH7-B3/GpL16-k0 (=100)
GpH7-A5/GpH7-B3 variant G237_02A/GpL16-k0 (antibody, human IgG1, kappa, Heterodimerized anti-glypican-3 IgG1; alteration in the GpH7-B3 chain only; also called He Ab) heavy 1: not shown heavy 2: not shown light: DIVMTQSPLSLPVTPGEPASISCQASESLVHSNRNTYLHWYLQKPGQSPQLLIYKVSNRFSGVPDRFSGSGSGTDFTLKISRVEAEDVGVYYCSQNTHVPPTFGQGTKVEIERTVAAPSVFIFPPSDEQLKSGTASVVCLLNNFYPREAKVQWKVDNALQSGNSQESVTEQDSKDSTYSLSSTLTLSKADYEKHKVYACEVTHQGLSSPVTKSFNRGEC	34 % of GpH7-A5/GpH7-B3/GpL16-k0 (=100)	124 % of GpH7-A5/GpH7-B3/GpL16-k0 (=100)
GpH7-A5/GpH7-B3 variant P238_14T/GpL16-k0 (antibody, human IgG1, kappa, Heterodimerized anti-glypican-3 IgG1; alteration in the GpH7-B3 chain only; also called He Ab) heavy 1: not shown heavy 2: not shown light: DIVMTQSPLSLPVTPGEPASISCQASESLVHSNRNTYLHWYLQKPGQSPQLLIYKVSNRFSGVPDRFSGSGSGTDFTLKISRVEAEDVGVYYCSQNTHVPPTFGQGTKVEIERTVAAPSVFIFPPSDEQLKSGTASVVCLLNNFYPREAKVQWKVDNALQSGNSQESVTEQDSKDSTYSLSSTLTLSKADYEKHKVYACEVTHQGLSSPVTKSFNRGEC	37.7 % of GpH7-A5/GpH7-B3/GpL16-k0 (=100)	50.7 % of GpH7-A5/GpH7-B3/GpL16-k0 (=100)
GpH7-A5/GpH7-B3 variant S267_06M/GpL16-k0 (antibody, human IgG1, kappa, Heterodimerized anti-glypican-3 IgG1; alteration in the GpH7-B3 chain only; also called He Ab) heavy 1: not shown heavy 2: not shown light: DIVMTQSPLSLPVTPGEPASISCQASESLVHSNRNTYLHWYLQKPGQSPQLLIYKVSNRFSGVPDRFSGSGSGTDFTLKISRVEAEDVGVYYCSQNTHVPPTFGQGTKVEIERTVAAPSVFIFPPSDEQLKSGTASVVCLLNNFYPREAKVQWKVDNALQSGNSQESVTEQDSKDSTYSLSSTLTLSKADYEKHKVYACEVTHQGLSSPVTKSFNRGEC	34.3 % of GpH7-A5/GpH7-B3/GpL16-k0 (=100)	210 % of GpH7-A5/GpH7-B3/GpL16-k0 (=100)
GpH7-A5/GpH7-B3 variant G237_03V/GpL16-k0 (antibody, human IgG1, kappa, Heterodimerized anti-glypican-3 IgG1; alteration in the GpH7-B3 chain only; also called He Ab) heavy 1: not shown heavy 2: not shown light: DIVMTQSPLSLPVTPGEPASISCQASESLVHSNRNTYLHWYLQKPGQSPQLLIYKVSNRFSGVPDRFSGSGSGTDFTLKISRVEAEDVGVYYCSQNTHVPPTFGQGTKVEIERTVAAPSVFIFPPSDEQLKSGTASVVCLLNNFYPREAKVQWKVDNALQSGNSQESVTEQDSKDSTYSLSSTLTLSKADYEKHKVYACEVTHQGLSSPVTKSFNRGEC	39.4 % of GpH7-A5/GpH7-B3/GpL16-k0 (=100)	61.4 % of GpH7-A5/GpH7-B3/GpL16-k0 (=100)
GpH7-A5/GpH7-B3 variant S239_05P/GpL16-k0 (antibody, human IgG1, kappa, Heterodimerized anti-glypican-3 IgG1; alteration in the GpH7-B3 chain only; also called He Ab) heavy 1: not shown heavy 2: not shown light: DIVMTQSPLSLPVTPGEPASISCQASESLVHSNRNTYLHWYLQKPGQSPQLLIYKVSNRFSGVPDRFSGSGSGTDFTLKISRVEAEDVGVYYCSQNTHVPPTFGQGTKVEIERTVAAPSVFIFPPSDEQLKSGTASVVCLLNNFYPREAKVQWKVDNALQSGNSQESVTEQDSKDSTYSLSSTLTLSKADYEKHKVYACEVTHQGLSSPVTKSFNRGEC	33.3 % of GpH7-A5/GpH7-B3/GpL16-k0 (=100)	102 % of GpH7-A5/GpH7-B3/GpL16-k0 (=100)
GpH7-A5/GpH7-B3 variant S267_14T/GpL16-k0 (antibody, human IgG1, kappa, Heterodimerized anti-glypican-3 IgG1; alteration in the GpH7-B3 chain only; also called He Ab) heavy 1: not shown heavy 2: not shown light: DIVMTQSPLSLPVTPGEPASISCQASESLVHSNRNTYLHWYLQKPGQSPQLLIYKVSNRFSGVPDRFSGSGSGTDFTLKISRVEAEDVGVYYCSQNTHVPPTFGQGTKVEIERTVAAPSVFIFPPSDEQLKSGTASVVCLLNNFYPREAKVQWKVDNALQSGNSQESVTEQDSKDSTYSLSSTLTLSKADYEKHKVYACEVTHQGLSSPVTKSFNRGEC	63.3 % of GpH7-A5/GpH7-B3/GpL16-k0 (=100)	104 % of GpH7-A5/GpH7-B3/GpL16-k0 (=100)
GpH7-A5/GpH7-B3 variant P238_06M/GpL16-k0 (antibody, human IgG1, kappa, Heterodimerized anti-glypican-3 IgG1; alteration in the GpH7-B3 chain only; also called He Ab) heavy 1: not shown heavy 2: not shown light: DIVMTQSPLSLPVTPGEPASISCQASESLVHSNRNTYLHWYLQKPGQSPQLLIYKVSNRFSGVPDRFSGSGSGTDFTLKISRVEAEDVGVYYCSQNTHVPPTFGQGTKVEIERTVAAPSVFIFPPSDEQLKSGTASVVCLLNNFYPREAKVQWKVDNALQSGNSQESVTEQDSKDSTYSLSSTLTLSKADYEKHKVYACEVTHQGLSSPVTKSFNRGEC	47.6 % of GpH7-A5/GpH7-B3/GpL16-k0 (=100)	174 % of GpH7-A5/GpH7-B3/GpL16-k0 (=100)
GpH7-A5/GpH7-B3 variant V266_06M/GpL16-k0 (antibody, human IgG1, kappa, Heterodimerized anti-glypican-3 IgG1; alteration in the GpH7-B3 chain only; also called He Ab) heavy 1: not shown heavy 2: not shown light: DIVMTQSPLSLPVTPGEPASISCQASESLVHSNRNTYLHWYLQKPGQSPQLLIYKVSNRFSGVPDRFSGSGSGTDFTLKISRVEAEDVGVYYCSQNTHVPPTFGQGTKVEIERTVAAPSVFIFPPSDEQLKSGTASVVCLLNNFYPREAKVQWKVDNALQSGNSQESVTEQDSKDSTYSLSSTLTLSKADYEKHKVYACEVTHQGLSSPVTKSFNRGEC	83.9 % of GpH7-A5/GpH7-B3/GpL16-k0 (=100)	251 % of GpH7-A5/GpH7-B3/GpL16-k0 (=100)
